Assay results reported in patent US6403087 (Biogen, dated 2002).

B1: soluble TNF-R fusion protein (p55-TNF-R-Fc) (Fc fusion, UniProt P19438 30-211, looked up, not shown: a dimerising Fc or GST)
chain: LVPHLGDREKRDSVCPQGKYIHPQNNSICCTKCHKGTYLYNDCPGPGQDTDCRECESGSFTASENHLRHCLSCSKCRKEMGQVEISSCTVDRDTVCGCRKNQYRHYWSENLFQCFNCSLCLNGTVHLSCQEKQNTVCTCHAGFFLRENECVSCSNCKKSLECTKLCLPQIENVKGTEDSGTT
B2: soluble human LT-β receptor-immunoglobulin Fc fusion protein (hLT-β-R-Fc) (Fc fusion, not shown: a dimerising Fc or GST)
chain: QAVPPYASENQTCRDQEKEYYEPQHRICCSRCPPGTYVSAKCSRIRDTVCATCAENSYNEHWNYLTICQLCRPCDPVMGLEEIAPCTSKRKTQCRCQPGMFCAAWALECTHCELLSDCPPGTEAELKDEVGKGNNHCVPCKAGHFQNTSSPSARCQPHTRCENQGLVEAAPGTAQSDTTCKNPLEPLPPEMSGT

Key:
Test in all cases: cell-based or functional assay
[1] = molecular target: T1, soluble human LT-α1/β2 ligand (hLT-α1/β2) (human, UniProt P01374 35-205; Q06643 49-244, limits assumed)
T1 sequence (looked up) 1: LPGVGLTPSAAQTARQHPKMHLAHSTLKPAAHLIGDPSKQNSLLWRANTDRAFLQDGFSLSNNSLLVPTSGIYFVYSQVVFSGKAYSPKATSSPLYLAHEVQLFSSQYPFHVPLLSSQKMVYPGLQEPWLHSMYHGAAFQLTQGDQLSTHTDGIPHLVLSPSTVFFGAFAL
T1 sequence (looked up) 2: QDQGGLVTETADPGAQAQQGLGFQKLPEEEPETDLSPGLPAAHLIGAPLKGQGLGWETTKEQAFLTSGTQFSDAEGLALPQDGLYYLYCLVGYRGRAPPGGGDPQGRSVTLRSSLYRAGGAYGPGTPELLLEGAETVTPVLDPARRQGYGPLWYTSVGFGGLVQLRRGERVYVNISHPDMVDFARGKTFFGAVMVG

hLT-α = molecular target: T2, hLT-α (human, UniProt P01374 35-205, limits assumed)
T2 sequence (looked up): T1 sequence (looked up) 1

hTNF = hTNF (human, UniProt P01375 77-233)
Chain of hTNF (P01375 77-233 limits assumed): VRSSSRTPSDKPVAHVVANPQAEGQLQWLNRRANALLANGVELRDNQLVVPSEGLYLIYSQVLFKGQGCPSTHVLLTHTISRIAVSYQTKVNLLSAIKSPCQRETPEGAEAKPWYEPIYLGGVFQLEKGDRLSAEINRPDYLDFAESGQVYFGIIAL

| Binder | Concentration of Cytotoxic Agent (ng/ml) Resulting in 50% Growth Inhibition of HT29 cells, in the presence of 5 µg/ml p55-TNF-R-Fc [1] [ng/mL] | Concentration of Cytotoxic Agent (ng/ml) Resulting in 50% Growth Inhibition of HT29 cells, in the presence of 5 µg/ml p55-TNF-R-Fc (hLT-α) [ng/mL] | Concentration of Cytotoxic Agent (ng/ml) Resulting in 50% Growth Inhibition of HT29 cells, in the presence of 5 µg/ml LT-β-R-Fc [1] [ng/mL] | Concentration of Cytotoxic Agent (ng/ml) Resulting in 50% Growth Inhibition of HT29 cells, in the presence of 5 µg/ml LT-β-R-Fc (hTNF) [ng/mL] | Concentration of Cytotoxic Agent (ng/ml) Resulting in 50% Growth Inhibition of HT29 cells, in the presence of 5 µg/ml LT-β-R-Fc (hLT-α) [ng/mL] |
| --- | --- | --- | --- | --- | --- |
| B1 | 5 | > 1000 | – | – | – |
| B2 | – | – | > 200 | 0.08 | 3 |
